Measurements from IntAct's records for PubMed 24217340.

B1: Zinc finger protein GLI1 (Homo sapiens), P08151 (parent)
chain: MFNSMTPPPISSYGEPCCLRPLPSQGAPSVGTEGLSGPPFCHQANLMSGPHSYGPARETNSCTEGPLFSSPRSAVKLTKKRALSISPLSDASLDLQTVIRTSPSSLVAFINSRCTSPGGSYGHLSIGTMSPSLGFPAQMNHQKGPSPSFGVQPCGPHDSARGGMIPHPQSRGPFPTCQLKSELDMLVGKCREEPLEGDMSSPNSTGIQDPLLGMLDGREDLEREEKREPESVYETDCRWDGCSQEFDSQEQLVHHINSEHIHGERKEFVCHWGGCSRELRPFKAQYMLVVHMRRHTGEKPHKCTFEGCRKSYSRLENLKTHLRSHTGEKPYMCEHEGCSKAFSNASDRAKHQNRTHSNEKPYVCKLPGCTKRYTDPSSLRKHVKTVHGPDAHVTKRHRGDGPLPRAPSISTVEPKREREGGPIREESRLTVPEGAMKPQPSPGAQSSCSSDHSPAGSAANTDSGVEMTGNAGGSTEDLSSLDEGPCIAGTGLSTLRRLENLRLDQLHQLRPIGTRGLKLPSLSHTGTTVSRRVGPPVSLERRSSSSSSISSAYTVSRRSSLASPFPPGSPPENGASSLPGLMPAQHYLLRARYASARGGGTSPTAASSLDRIGGLPMPPWRSRAEYPGYNPNAGVTRRASDPAQAADRPAPARVQRFKSLGCVHTPPTVAGGGQNFDPYLPTSVYSPQPPSITENAAMDARGLQEEPEVGTSMVGSGLNPYMDFPPTDTLGYGGPEGAAAEPYGARGPGSLPLGPGPPTNYGPNPCPQQASYPDPTQETWGEFPSHSGLYPGPKALGGTYSQCPRLEHYGQVQVKPEQGCPVGSDSTGLAPCLNAHPSEGPPHPQPLFSHYPQPSPPQYLQSGPYTQPPPDYLPSEPRPCLDFDSPTHSTGQLKAQLVCNYVQSQQELLWEGGGREDAPAQEPSYQSPKFLGGSQVSPSRAKAPVNTYGPGFGPNLPNHKSGSYPTPSPCHENFVVGANRASHRAAAPPRLLPPLPTCYGPLKVGGTNPSCGHPEVGRLGGGPALYPPPEGQVCNPLDSLDLDNTQLDFVAILDEPQGLSPPPSHDQRGSSGHTPPPSGPPNMAVGNMSVLLRSLPGETEFLNSSA
partner: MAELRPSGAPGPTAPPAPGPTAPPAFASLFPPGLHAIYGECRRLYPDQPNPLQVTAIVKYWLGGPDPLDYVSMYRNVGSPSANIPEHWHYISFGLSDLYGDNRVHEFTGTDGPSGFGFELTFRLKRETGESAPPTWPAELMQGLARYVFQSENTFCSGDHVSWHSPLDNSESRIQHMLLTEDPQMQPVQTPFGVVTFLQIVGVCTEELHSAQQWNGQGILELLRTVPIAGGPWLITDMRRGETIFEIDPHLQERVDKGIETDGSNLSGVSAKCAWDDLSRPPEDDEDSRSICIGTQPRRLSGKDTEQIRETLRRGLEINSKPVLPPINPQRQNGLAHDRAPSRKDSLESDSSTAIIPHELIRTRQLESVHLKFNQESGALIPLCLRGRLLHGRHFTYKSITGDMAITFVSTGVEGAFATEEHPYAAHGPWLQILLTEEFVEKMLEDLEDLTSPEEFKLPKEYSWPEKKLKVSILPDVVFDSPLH
B2: Suppressor of fused homolog (Homo sapiens), Q9UMX1 (parent)
chain: B1 partner

Variants of: B1
Settings: with sufu_human SUFU, Q9UMX1
In the case of G122A;H123A;L124D, the “effect of a mutation on the interaction” value is reported as “decreasing interaction”.

Variants of: B2
Settings: with gli1_human GLI1, P08151
With MAELRPSGAPGPTAPPAPGPTAPPAFASLFPPGLHAIYGECRRLYPDQPNPLQVTAIVKYWLGGPDPLDYVSMYRNVGSPSANIPEHWHYISFGLSDLYGDNRVHEFTGTDGPSGFGFELTFRLKRETGESAPPTWPAELMQGLARRVFQSENTACSGAHVSWHSPLDNSESRIQHMLLTEDPQMQPVQTPFGVVTFLQIVGVCTEELHSAQQWNGQGILELLRTVPIAGGPWLITDMRRGETIFEIDPHLQERVDKGIETDGSNLSGVSAKCAWDDLSRPPEDDEDSRSICIGTQPRRLSGKDTEQIRETLRRGLEINSKPVLPPINPQRQNGLAHDRAPSRKDSLESDSSTAIIPHELIRTRQLESVHLKFNQESGARIPLCLRGRLLHGRHFTYKSITGDMAITFVSTGVEGAFATEEHPYAAHGPWLQILLTEEFVEKMLEDLEDLTSPEEFKLPKEYSWPEKKLKVSILPDVVFDSPLH [Y147R;F155A;D159A;L380R] the “effect of a mutation on the interaction” value was “disrupting interaction”.
With MAELRPSGAPGPTAPPAPGPTAPPAFASLFPPGLHAIYGECRRLYPDQPNPLQVTAIVKYWLGGPDPLDYVSMYRNVGSPSANIPEHWHYISFGLSDLYGDNRVHEFTGTDGPSGFGFELTFRLKRETGESAPPTWPAELMQGLARRVFQSENTACSGDHVSWHSPLDNSESRIQHMLLTEDPQMQPVQTPFGVVTFLQIVGVCTEELHSAQQWNGQGILELLRTVPIAGGPWLITDMRRGETIFEIDPHLQERVDKGIETDGSNLSGVSAKCAWDDLSRPPEDDEDSRSICIGTQPRRLSGKDTEQIRETLRRGLEINSKPVLPPINPQRQNGLAHDRAPSRKDSLESDSSTAIIPHELIRTRQLESVHLKFNQESGALIPLCLRGRLLHGRHFTYKSITGDMAITFVSTGVEGAFATEEHPYAAHGPWLQILLTEEFVEKMLEDLEDLTSPEEFKLPKEYSWPEKKLKVSILPDVVFDSPLH [Y147R;F155A] the “effect of a mutation on the interaction” value was “decreasing interaction”.
MAELRPSGAPGPTAPPAPGPTAPPAFASLFPPGLHAIYGECRRLYPDQPNPLQVTAIVKYWLGGPDPLDYVSMYRNVGSPSANIPEHWHYISFGLSDLYGDNRVHEFTGTDGPSGFGFELTFRLKRETGESAPPTWPAELMQGLARRVFQSENTFCSGRHVSWHSPLDNSESRIQHMLLTEDPQMQPVQTPFGVVTFLQIVGVCTEELHSAQQWNGQGILELLRTVPIAGGPWLITDMRRGETIFEIDPHLQERVDKGIETDGSNLSGVSAKCAWDDLSRPPEDDEDSRSICIGTQPRRLSGKDTEQIRETLRRGLEINSKPVLPPINPQRQNGLAHDRAPSRKDSLESDSSTAIIPHELIRTRQLESVHLKFNQESGARIPLCLRGRLLHGRHFTYKSITGDMAITFVSTGVEGAFATEEHPYAAHGPWLQILLTEEFVEKMLEDLEDLTSPEEFKLPKEYSWPEKKLKVSILPDVVFDSPLH [Y147R;D159R;L380R] was tested, and the “effect of a mutation on the interaction” value was “disrupting interaction”.
MAELRPSGAPGPTAPPAPGPTAPPAFASLFPPGLHAIYGECRRLYPDQPNPLQVTAIVKYWLGGPDPLDYVSMYRNVGSPSANIPEHWHYISFGLSDLYGDNRVHEFTGTDGPSGFGFELTFRLKRETGESAPPTWPAELMQGLARRVFQSENTFCSGRHVSWHSPLDNSESRIQHMLLTEDPQMQPVQTPFGVVTFLQIVGVCTEELHSAQQWNGQGILELLRTVPIAGGPWLITDMRRGETIFEIDPHLQERVDKGIETDGSNLSGVSAKCAWDDLSRPPEDDEDSRSICIGTQPRRLSGKDTEQIRETLRRGLEINSKPVLPPINPQRQNGLAHDRAPSRKDSLESDSSTAIIPHELIRTRQLESVHLKFNQESGALIPLCLRGRLLHGRHFTYKSITGDMAITFVSTGVEGAFATEEHPYAAHGPWLQILLTEEFVEKMLEDLEDLTSPEEFKLPKEYSWPEKKLKVSILPDVVFDSPLH [Y147R;D159R] was tested, and the “effect of a mutation on the interaction” value was “disrupting interaction”.

Variants of: B2
Settings: with gli1_human GLI1, P08151
Remark: another data set of the same source
MAELRPSGAPGPTAPPAPGPTAPPAFASLFPPGLHAIYGECRRLYPDQPNPLQVTAIVKYWLGGPDPLDYVSMYRNVGSPSANIPEHWHYISFGLSDLYGDNRVHEFTGTDGPSGFGFELTFRLKRETGESAPPTWPAELMQGLARRVFQSENTACSGDHVSWHSPLDNSESRIQHMLLTEDPQMQPVQTPFGVVTFLQIVGVCTEELHSAQQWNGQGILELLRTVPIAGGPWLITDMRRGETIFEIDPHLQERVDKGIETDGSNLSGVSAKCAWDDLSRPPEDDEDSRSICIGTQPRRLSGKDTEQIRETLRRGLEINSKPVLPPINPQRQNGLAHDRAPSRKDSLESDSSTAIIPHELIRTRQLESVHLKFNQESGALIPLCLRGRLLHGRHFTYKSITGDMAITFVSTGVEGAFATEEHPYAAHGPWLQILLTEEFVEKMLEDLEDLTSPEEFKLPKEYSWPEKKLKVSILPDVVFDSPLH [Y147R;F155A] was tested, and the “effect of a mutation on the interaction” value was “disrupting interaction”.

Variants of: B2
Settings: with gli2_mouse Gli2, Q0VGT2
MAELRPSGAPGPTAPPAPGPTAPPAFASLFPPGLHAIYGECRRLYPDQPNPLQVTAIVKYWLGGPDPLDYVSMYRNVGSPSANIPEHWHYISFGLSDLYGDNRVHEFTGTDGPSGFGFELTFRLKRETGESAPPTWPAELMQGLARRVFQSENTFCSGRHVSWHSPLDNSESRIQHMLLTEDPQMQPVQTPFGVVTFLQIVGVCTEELHSAQQWNGQGILELLRTVPIAGGPWLITDMRRGETIFEIDPHLQERVDKGIETDGSNLSGVSAKCAWDDLSRPPEDDEDSRSICIGTQPRRLSGKDTEQIRETLRRGLEINSKPVLPPINPQRQNGLAHDRAPSRKDSLESDSSTAIIPHELIRTRQLESVHLKFNQESGARIPLCLRGRLLHGRHFTYKSITGDMAITFVSTGVEGAFATEEHPYAAHGPWLQILLTEEFVEKMLEDLEDLTSPEEFKLPKEYSWPEKKLKVSILPDVVFDSPLH [Y147R;D159R;L380R] was tested, and the “effect of a mutation on the interaction” value was “disrupting interaction”.
